# Residue numbers refer to the chain shown, from its start. Names may count otherwise.
# B1: GLS3000 S27eQ one-arm antibody (antibody, human IgG1, kappa, L234A L235A, N297A, name in Kabat numbering)
# heavy: QVQLVESGGGVVQPGRSLRLSCAASGFTFSNAWMHWVRQAPGKGLEWVAQIKAKSNNYATYYAESVKGRFTISRDDSKNSLYLQMNSLKTEDTAVYYCRYVHYGAYYGVDAWGQGTTVTVSSASTKGPSVFPLAPSSKSTSGGTAALGCLVKDYFPEPVTVSWNSGALTSGVHTFPAVLQSSGLYSLSSVVTVPSSSLGTQTYICNVNHKPSNTKVDKKVEPKSCDKTHTCPPCPAPEAAGGPSVFLFPPKPKDTLMISRTPEVTCVVVDVSHEDPEVKFNWYVDGVEVHNAKTKPREEQYASTYRVVSVLTVLHQDWLNGKEYKCKVSNKALPAPIEKTISKAKGQPREPQVYTLPPSRCELTKNQVSLSCAVKGFYPSDIAVEWESNGQPENNYKTTPPVLDSDGSFFLVSKLTVDKSRWQQGNVFSCSVMHEALHNHYTQKSLSLSPDYKDDDDK
# chain: EPKSSDKTHTCPPCPAPELLGGPSVFLFPPKPKDTLMISRTPEVTCVVVDVSHEDPEVKFNWYVDGVEVHNAKTKPREEQYNSTYRVVSVLTVLHQDWLNGKEYKCKVSNKALPAPIEKTISKAKGQPREPQVCTLPPSRDELTKNQVSLWCLVKGFYPSDIAVEWESNGQPENNYKTTPPVLDSDGSFFLYSKLTVDKSRWQQGNVFSCSVMHEALHNRYTQKSLSLSP
# light: DIVMTQSPLSLPVTPGEPASISCRSSQSLVHQNRNTYLHWYQQKPGQAPRLLIYKVSNRFSGVPDRFSGSGSGTDFTLKISRVEAEDVGVYYCGQGTQVPYTFGQGTKLEIKRTVAAPSVFIFPPSDEQLKSGTASVVCLLNNFYPREAKVQWKVDNALQSGNSQESVTEQDSKDSTYSLSSTLTLSKADYEKHKVYACEVTHQGLSSPVTKSFNRGEC
# B2: GLS3000 S27eY one-arm antibody (antibody, human IgG1, kappa, L234A L235A, N297A, name in Kabat numbering)
# heavy: B1 heavy
# chain: B1 chain
# light: B1 light with Q32Y
# B3: GLS3000 T31N one-arm antibody (antibody, human IgG1, kappa, L234A L235A, N297A, name in Kabat numbering)
# heavy: B1 heavy
# chain: B1 chain
# light: B1 light with Q32S, T36N
# B4: GLS3000 S27eV one-arm antibody (antibody, human IgG1, kappa, L234A L235A, N297A, name in Kabat numbering)
# heavy: B1 heavy
# chain: B1 chain
# light: B1 light with Q32V
# B5: GLS3000 S52D one-arm antibody (antibody, human IgG1, kappa, L234A L235A, N297A, name in Kabat numbering)
# heavy: B1 heavy
# chain: B1 chain
# light: B1 light with Q32S, S57D
# B6: GLS3000 S56R one-arm antibody (antibody, human IgG1, kappa, L234A L235A, N297A, name in Kabat numbering)
# heavy: B1 heavy
# chain: B1 chain
# light: B1 light with Q32S, S61R
# B7: GLS3000 S27eW one-arm antibody (antibody, human IgG1, kappa, L234A L235A, N297A, name in Kabat numbering)
# heavy: B1 heavy
# chain: B1 chain
# light: B1 light with Q32W
# B8: GLS3000 S56Q one-arm antibody (antibody, human IgG1, kappa, L234A L235A, N297A, name in Kabat numbering)
# heavy: B1 heavy
# chain: B1 chain
# light: B1 light with Q32S, S61Q
# B9: GLS3000 S56P one-arm antibody (antibody, human IgG1, kappa, L234A L235A, N297A, name in Kabat numbering)
# heavy: B1 heavy
# chain: B1 chain
# light: B1 light with Q32S, S61P
# B10: GLS3000 S56W one-arm antibody (antibody, human IgG1, kappa, L234A L235A, N297A, name in Kabat numbering)
# heavy: B1 heavy
# chain: B1 chain
# light: B1 light with Q32S, S61W
# B11: GLS3000 S56H one-arm antibody (antibody, human IgG1, kappa, L234A L235A, N297A, name in Kabat numbering)
# heavy: B1 heavy
# chain: B1 chain
# light: B1 light with Q32S, S61H
# B12: GLS3000 S56K one-arm antibody (antibody, human IgG1, kappa, L234A L235A, N297A, name in Kabat numbering)
# heavy: B1 heavy
# chain: B1 chain
# light: B1 light with Q32S, S61K
# B13: GLS3000 S52P one-arm antibody (antibody, human IgG1, kappa, L234A L235A, N297A, name in Kabat numbering)
# heavy: B1 heavy
# chain: B1 chain
# light: B1 light with Q32S, S57P
# B14: GLS3000 S56V one-arm antibody (antibody, human IgG1, kappa, L234A L235A, N297A, name in Kabat numbering)
# heavy: B1 heavy
# chain: B1 chain
# light: B1 light with Q32S, S61V
# B15: GLS3000 S52Q one-arm antibody (antibody, human IgG1, kappa, L234A L235A, N297A, name in Kabat numbering)
# heavy: B1 heavy
# chain: B1 chain
# light: B1 light with Q32S, S57Q
# B16: GLS3000 S52Y one-arm antibody (antibody, human IgG1, kappa, L234A L235A, N297A, name in Kabat numbering)
# heavy: B1 heavy
# chain: B1 chain
# light: B1 light with Q32S, S57Y
# B17: GLS3000 S27eT one-arm antibody (antibody, human IgG1, kappa, L234A L235A, N297A, name in Kabat numbering)
# heavy: B1 heavy
# chain: B1 chain
# light: B1 light with Q32T
# B18: GLS3000 S52A one-arm antibody (antibody, human IgG1, kappa, L234A L235A, N297A, name in Kabat numbering)
# heavy: B1 heavy
# chain: B1 chain
# light: B1 light with Q32S, S57A
# B19: GLS3000 S56E one-arm antibody (antibody, human IgG1, kappa, L234A L235A, N297A, name in Kabat numbering)
# heavy: B1 heavy
# chain: B1 chain
# light: B1 light with Q32S, S61E
# B20: GLS3000 T31K one-arm antibody (antibody, human IgG1, kappa, L234A L235A, N297A, name in Kabat numbering)
# heavy: B1 heavy
# chain: B1 chain
# light: B1 light with Q32S, T36K
# B21: GLS3000 S56D one-arm antibody (antibody, human IgG1, kappa, L234A L235A, N297A, name in Kabat numbering)
# heavy: B1 heavy
# chain: B1 chain
# light: B1 light with Q32S, S61D
# B22: GLS3000 S56T one-arm antibody (antibody, human IgG1, kappa, L234A L235A, N297A, name in Kabat numbering)
# heavy: B1 heavy
# chain: B1 chain
# light: B1 light with Q32S, S61T
# B23: GLS3000 S56Y one-arm antibody (antibody, human IgG1, kappa, L234A L235A, N297A, name in Kabat numbering)
# heavy: B1 heavy
# chain: B1 chain
# light: B1 light with Q32S, S61Y
# B24: GLS3000 S56L one-arm antibody (antibody, human IgG1, kappa, L234A L235A, N297A, name in Kabat numbering)
# heavy: B1 heavy
# chain: B1 chain
# light: B1 light with Q32S, S61L
# B25: GLS3000 T31E one-arm antibody (antibody, human IgG1, kappa, L234A L235A, N297A, name in Kabat numbering)
# heavy: B1 heavy
# chain: B1 chain
# light: B1 light with Q32S, T36E
# B26: GLS3000 S56A one-arm antibody (antibody, human IgG1, kappa, L234A L235A, N297A, name in Kabat numbering)
# heavy: B1 heavy
# chain: B1 chain
# light: B1 light with Q32S, S61A
# B27: GLS3000 S56N one-arm antibody (antibody, human IgG1, kappa, L234A L235A, N297A, name in Kabat numbering)
# heavy: B1 heavy
# chain: B1 chain
# light: B1 light with Q32S, S61N
# B28: GLS3000 S56I one-arm antibody (antibody, human IgG1, kappa, L234A L235A, N297A, name in Kabat numbering)
# heavy: B1 heavy
# chain: B1 chain
# light: B1 light with Q32S, S61I
# B29: GLS3000 S56G one-arm antibody (antibody, human IgG1, kappa, L234A L235A, N297A, name in Kabat numbering)
# heavy: B1 heavy
# chain: B1 chain
# light: B1 light with Q32S, S61G
# B30: GLS3000 S56F one-arm antibody (antibody, human IgG1, kappa, L234A L235A, N297A, name in Kabat numbering)
# heavy: B1 heavy
# chain: B1 chain
# light: B1 light with Q32S, S61F
# B31: GLS3000 S27eR one-arm antibody (antibody, human IgG1, kappa, L234A L235A, N297A, name in Kabat numbering)
# heavy: B1 heavy
# chain: B1 chain
# light: B1 light with Q32R
# B32: GLS3000 T31D one-arm antibody (antibody, human IgG1, kappa, L234A L235A, N297A, name in Kabat numbering)
# heavy: B1 heavy
# chain: B1 chain
# light: B1 light with Q32S, T36D
# B33: GLS3000 S56M one-arm antibody (antibody, human IgG1, kappa, L234A L235A, N297A, name in Kabat numbering)
# heavy: B1 heavy
# chain: B1 chain
# light: B1 light with Q32S, S61M
# B34: GLS3000 T31I one-arm antibody (antibody, human IgG1, kappa, L234A L235A, N297A, name in Kabat numbering)
# heavy: B1 heavy
# chain: B1 chain
# light: B1 light with Q32S, T36I
# Molecular target: T1, CD3ε homodimer protein (human, UniProt P07766 23-126, limits assumed)
# T1 construct: also called CD3 (CD3ε)
# Assay: SPR Biacore T200, CD3ε homodimer on chip;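 further: Light-chain single-residue variant antibodies injected over amine-coupled CD3ε homodimer on a CM4 chip at 25 °C, bound amount divided by that of the GLS3000-containing antibody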
# T1 sequence (P07766 23-126 limits assumed): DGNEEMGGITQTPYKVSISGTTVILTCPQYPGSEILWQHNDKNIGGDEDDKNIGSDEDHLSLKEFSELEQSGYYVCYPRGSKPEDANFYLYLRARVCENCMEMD
row,ratio of amount bound vs unaltered GLS3000,Binder
1,1.1,B1
2,1.2,B2
3,0.32,B3
4,1.08,B4
5,0.63,B5
6,1.36,B6
7,1.55,B7
8,1.04,B8
9,0.95,B9
10,1.38,B10
11,1.05,B11
12,1.46,B12
13,0.33,B13
14,0.95,B14
15,1.05,B15
16,1.12,B16
17,0.97,B17

row,ratio of amount bound vs unaltered GLS3000,Binder
1,0.93,B18
2,0.71,B19
3,1.04,B20
4,0.77,B21
5,0.97,B22
6,1.46,B23
7,1.02,B24
8,0.49,B25
9,1.16,B26
10,0.92,B27
11,0.99,B28
12,0.92,B29
13,1.32,B30
14,1.58,B31
15,0.23,B32
16,1.05,B33
17,0.97,B34
